Laboratory results as given in patent US20260193363A1.

Columns and labels:
[1] = target: wtEGFR at physiological levels on WI-38 cells (human) (UniProt P00533); assay: flow cytometry, antibodies added at 2 µg/ml, WI-38 cells
[2] = target: EGFR overexpressed on cancer cell lines MDA-MB-468 and A431 (human) (UniProt P00533); assay: flow cytometry, antibodies added at 2 µg/ml, A431 cells
[3] = target: EGFRvIII on F98npEGFRvIII cells (rat glioma F98 transfected with nonphosphorylated EGFRvIII); assay: flow cytometry, antibodies added at 2 µg/ml, F98-npEGFRvIII cells
[4] = target: EGFR overexpressed on cancer cell lines MDA-MB-468 and A431 (human) (UniProt P00533); assay: flow cytometry, antibodies added at 2 µg/ml, MDA-MB-468 cells
[5] = target: wild-type EGFR on F98EGFR cells (rat glioma F98 transfected with full-length EGFR) (UniProt P00533); assay: flow cytometry, antibodies added at 2 µg/ml, F98-EGFR cells
[6] = target: wild-type EGFR on F98EGFR cells (rat glioma F98 transfected with full-length EGFR) (UniProt P00533); assay: flow cytometry on F98EGFR cells, antibody at 2 µg/ml
[7] = target: EGFRvIII on DKMG-EGFRvIII cells (human glioblastoma line DKMG transduced with EGFRvIII); assay: flow cytometry on DKMG-EGFRvIII cells, antibody at 0.1 µg/ml
[8] = target: EGFRvIII on DKMG-EGFRvIII cells (human glioblastoma line DKMG transduced with EGFRvIII); assay: flow cytometry on DKMG-EGFRvIII cells, antibody at 1 µg/ml
[9] = target: EGFRvIII on DKMG-EGFRvIII cells (human glioblastoma line DKMG transduced with EGFRvIII); assay: flow cytometry on DKMG-EGFRvIII cells, antibody at 10 µg/ml
[10] = target: EGFR and EGFRvIII on GBM39 cells (patient derived xenograft glioblastoma line); assay: flow cytometry on GBM39 cells, antibody at 20 µg/ml
[11] = target: EGFR and EGFRvIII on GBM39 cells (patient derived xenograft glioblastoma line); assay: flow cytometry on GBM39 cells, antibody at 0.2 µg/ml
[12] = target: wtEGFR at physiological levels on WI-38 cells (human) (UniProt P00533); assay: flow cytometry on WI-38 cells, antibody at 2 µg/ml
[13] = target: EGFR and EGFRvIII on GBM39 cells (patient derived xenograft glioblastoma line); assay: flow cytometry on GBM39 cells, antibody at 2 µg/ml

Substance	Median : PE-A [1]	Median : PE-A [2]	Median : PE-A [3]	Median : PE-A [4]	Median : PE-A [5]	GeoMean [6]	median fluorescent intensity [7]	median fluorescent intensity [8]	median fluorescent intensity [9]	median fluorescent intensity [10]	median fluorescent intensity [11]	GeoMean [12]	median fluorescent intensity [13]
IgG1 Iso Con (antibody)	48	34.3	26.2	34.9	32.6	–	–	–	–	–	–	–	–
IgG2 Iso Con (antibody)	47.6	31.2	26.9	34.1	33.5	–	–	–	–	–	–	–	–
monoclonal antibody ma528	2720	10700	4470	6860	4040	3700	12900	14300	13500	30300	12700	2450	29800
